Data taken from patent publication US20090281024A1 (RAPTOR PHARMACEUTICALS, published 2009).

Columns and labels:
Assay in all cases: solid-phase binding assay: LRP2 CR89 coated on the plate, d3 ligand in solution, anti-RAP detection, absorbance
[1] = biological target: T1, RAP d3 K270E (human, UniProt P30533 235-353)
T1 construct: range 201-319 (mature RAP numbering); Forward mutant of m1; same construct; also called RAP K270E; not shown: N-terminal hexahistidine and S-peptide tags of pET30(+)a
T1 sequence (looked up): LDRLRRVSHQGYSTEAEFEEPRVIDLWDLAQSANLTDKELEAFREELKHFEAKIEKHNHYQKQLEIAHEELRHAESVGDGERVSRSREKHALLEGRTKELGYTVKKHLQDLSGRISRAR
Method: (§1) Solid phase binding assays—Purified, refolded CR protein (1 μg) was bound to Nunc Maxisorp™ 96-well plates in TBS pH 8 supplemented with 5 mM CaCl₂ (TBSC) overnight at 4° C. Wells were washed with TBSC and then blocked with TBSC containing 2% bovine serum albumin (BSA). RAP ligands were then incubated with the immobilized receptor at a range of concentrations for 2 hours in the above blocking buffer supplemented with 0.05% Tween-20 at room temperature. Control wells contained no added ligand. As an additional control, to determine whether the absence of calcium affected binding, 10 mM EGTA was included in the incubation medium for some samples. Wells were washed with TBSTC and bound ligands detected with polyclonal anti-RAP (BP41/42, 1:1,000, BioMarin). Excess primary antibody was removed and wells washed before incubation with the secondary antibody, HRP-conjugated goat anti rabbit IgG (Bio-Rad). After washing, TMB substrate solutions (Bio-Rad) were added to detect HRP. Color development was stopped with 1N HCl. Absorption at 450 nm was measured with a microplate spectrophotometer (Molecular Devices). Data were plotted and Kd values derived by non-linear regression with the assumption of single-site binding (GraphPad Prism).
(§2) Next, the binding of RAP d3 and MegaRAP1 d3 proteins to LRP1 CR3-5 and LRP2 CR89 was assessed. […] In all cases, 10 mM EGTA prevented binding of both RAP d3 and MegaRAP1 d3 to CR proteins. Since calcium was the only divalent metal ion present in the binding buffer, this observation is consistent with both RAP d3 and MegaRAP1 d3 binding to calcium-loaded CR pairs. […] Therefore, wild-type RAP d3 and MegaRAP1 d3 have inverted binding preferences for these two receptor fragments.

[2] = biological target: T2, RAP d3 E251K (human, UniProt P30533 235-353)
T2 construct: range 201-319 (mature RAP numbering); Forward mutant of m1; same construct; also called RAP E251K; not shown: N-terminal hexahistidine and S-peptide tags of pET30(+)a
T2 sequence (looked up): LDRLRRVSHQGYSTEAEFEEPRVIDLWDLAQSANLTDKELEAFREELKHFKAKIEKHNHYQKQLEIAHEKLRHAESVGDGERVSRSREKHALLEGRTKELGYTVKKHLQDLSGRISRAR
Method: as §1, §2

[3] = biological target: T3, RAP d3 E217K (human, UniProt P30533 235-353)
T3 construct: range 201-319 (mature RAP numbering); Forward mutant of m1; same construct; also called RAP E217K; not shown: N-terminal hexahistidine and S-peptide tags of pET30(+)a
T3 sequence (looked up): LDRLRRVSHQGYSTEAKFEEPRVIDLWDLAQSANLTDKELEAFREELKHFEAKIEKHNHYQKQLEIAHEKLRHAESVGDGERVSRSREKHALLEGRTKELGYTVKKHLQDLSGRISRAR
Method: as §1, §2

[4] = biological target: T4, RAP d3 K256A, K270E (human, UniProt P30533 235-353)
T4 construct: range 201-319 (mature RAP numbering); Forward mutant of m1; same construct; also called RAP K256A, K270E; not shown: N-terminal hexahistidine and S-peptide tags of pET30(+)a
T4 sequence (looked up): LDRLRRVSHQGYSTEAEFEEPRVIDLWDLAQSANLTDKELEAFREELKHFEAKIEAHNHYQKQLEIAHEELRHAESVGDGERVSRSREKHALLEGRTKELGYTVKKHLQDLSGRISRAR
Method: as §1, §2

[5] = biological target: T5, RAP d3 H249Y (human, UniProt P30533 235-353)
T5 construct: range 201-319 (mature RAP numbering); Forward mutant of m1; same construct; also called RAP H249Y; not shown: N-terminal hexahistidine and S-peptide tags of pET30(+)a
T5 sequence (looked up): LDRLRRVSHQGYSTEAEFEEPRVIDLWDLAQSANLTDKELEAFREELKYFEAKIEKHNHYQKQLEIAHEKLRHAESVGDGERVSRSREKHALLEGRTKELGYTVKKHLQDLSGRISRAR
Method: as §1, §2

[6] = biological target: T6, RAP d3 E251K, K270E (human, UniProt P30533 235-353)
T6 construct: range 201-319 (mature RAP numbering); Forward mutant of m1; same construct; also called RAP E251K, K270E; not shown: N-terminal hexahistidine and S-peptide tags of pET30(+)a
T6 sequence (looked up): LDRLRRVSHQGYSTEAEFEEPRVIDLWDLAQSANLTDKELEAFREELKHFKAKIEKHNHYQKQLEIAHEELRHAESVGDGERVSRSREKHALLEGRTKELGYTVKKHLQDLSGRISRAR
Method: as §1, §2

Measured: binding result

B1: LRP2 CR89 (receptor)
chain: not shown
notes: domain: CR89; Limits of the fragment are set only by the primers LRP2CR8F and LRP2CR9R; also called YVWR; L2 CR89; not shown: N-terminal hexahistidine and S-peptide tags of pET30(+)a
no binding (tested: 100 nM): [1] | [2] | [3] | [4] | [5] | [6]
